The values below come from article doi:10.1101/744821 (bioRxiv, 2019).

To fix the notation:
B1: His6-EGFP-KRIT1(WT) FERM domain (417-736) (domain or fragment, human, UniProt O00522 417-736, looked up)
chain: KPYEKVRIYRMDGSYRSVELKHGNNTTVQQIMEGMRLSQETQQYFTIWICSENLSLQLKPYHKPLQHVRDWPEILAELTNLDPQRETPQLFLRRDVRLPLEVEKQIEDPLAILILFDEARYNLLKGFYTAPDAKLITLASLLLQIVYGNYESKKHKQGFLNEENLKSIVPVTKLKSKAPHWTNRILHEYKNLSTSEGVSKEMHHLQRMFLQNCWEIPTYGAAFFTGQIFTKASPSNHKVIPVYVGVNIKGLHLLNMETKALLISLKYGCFMWQLGDTDTCFQIHSMENKMSFIVHTKQAGLVVKLLMKLNGQLMPTERNS

Test [1] addresses T1, biotinylated HEG1 cytoplasmic tail (a.a. 1274-1381) (UniProt Q9ULI3 1274-1381, biotin on the in vivo biotinylation peptide tag).
T1 sequence (looked up): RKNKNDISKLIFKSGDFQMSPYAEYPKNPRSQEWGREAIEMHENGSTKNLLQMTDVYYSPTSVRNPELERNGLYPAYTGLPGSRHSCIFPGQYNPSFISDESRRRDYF
Description: flow cytometry on beads.

For test [2], the target named is B1. Description: flow cytometry on beads.

One may read the EC50 as the concentration giving half of the maximal effect. Higher therefore signals a need for much substance. In turn, B1 showed an EC50 in test [1] of 32.4 nM.
As usually defined, the IC50 is the concentration that gives 50% inhibition. The low end stands for higher potency, the high end for lower potency. In turn, SRRRDYF (peptide, UniProt Q9ULI3 1375-1381, looked up) [non-biotinylated HEG1 7-mer peptide (residues 1375-1381)] came in with an IC50 in test [2] of 410 nM.
